Test [1] concerns the target T1, Akt (Homo sapiens, UniProt P31749).
T1 construct: host or cells: baculovirus-infected SF9 cells (Akt); peptides synthesized at the W. M. Keck Biotechnology Resource Center
In words: In vitro phosphorylation of eNOS peptides (1174-1194) by recombinant Akt. The format is biochemical. The settings on record: n=5. As for the experimental part: In studies identifying the labeled eNOS peptide, immunoprecipitated Akt was incubated with recombinant eNOS as above. The sample was run on SDS-PAGE, and the eNOS band digested in gel, and the resultant tryptic fragments purified by RP-HPLC. Peptide mass and ^32P incorporation were monitored and the prominent labeled peak further analyzed by mass spectrometry. In other experiments, peptides corresponding to the potential Akt phosphorylation site were synthesized, purified by HPLC and verified by mass spectrometry (W. M. Keck Biotechnology Resource Center, Yale University School of Medicine). The wild-type peptide was 1174[…]1194 (SEQ ID NO:2) and the mutant peptide was identical except S1179 was changed to an alanine. In vitro kinase reactions were essentially as described above incubating peptides (25 mg) with recombinant Akt (1 mg). Reactions were then spotted onto phosphocellulose filters and the amount of phosphate incorporated measured by Cerenkov counting.

For test [2], the system named is COS-7 cells. In words: NO release (NO2−, chemiluminescence) from transfected COS cells. In kind it is cell-based. The settings on record: for Akt dependent NO release / activation of NOS construct: NOS construct co-transfected with Akt; for NO2− accumulation on co-transfection with eNOS: Akt construct co-transfected with eNOS, FIG. 1A. An excerpt:
Cell Transfections: The bovine eNOS, human iNOS, rat nNOS cDNAs in pcDNA3 and HA-tagged wild-type Akt, Akt (K179M) or myr-Akt in pCMV6 were generated by standard cloning methods. The myr-nNOS in pcDNA3 was generated by PCR, incorporating a new amino terminus containing the eNOS N-myristoylation consensus site (MGNLKSVG, SEQ ID NO:1) fused in frame to the second amino acid of the nNOS coding sequence. […] Mutation of the putative Akt phosphorylation sites in eNOS were generated using the Quick Change site-directed mutagenesis kit (Stratagene) according to the manufacturers instructions. All mutants were verified by DNA sequencing. COS-7 cells were plated (100 mm dish) and transfected with the NOS (7.5-30 mg) and Akt (1 mg) plasmids using calcium phosphate. To balance all transfections, the expression vector for β-galactosidase cDNA was used. Twenty-four to forty-eight hours after transfection, the expression of appropriate proteins (40-80 mg) were confirmed by Western blot analysis using eNOS mAb (9D10, Zymed), HA mAb (12CA5, Boehringer Mannheim), iNOS pAb (Zymed Laboratories) or nNOS mAb (Zymed Laboratories).
NO release from transfected COS cells: 24-48 hrs after transfection, media was processed for the measurement of nitrite (NO2^−), the stable breakdown product of NO in aqueous solution, by NO specific chemiluminescence as described (Sessa et al., 1995). Media was deproteinized and samples containing NO2^− were refluxed in glacial acetic acid containing sodium iodide. […] In all experiments, NO2^− release was inhibitable by a NOS inhibitor. In addition, NO2^−-release from cells transfected with the β-galactosidase cDNA was subtracted to control for background levels of NO2^− found in serum or media. In some experiments, cGMP accumulation in COS was used as a bioassay for the production of NO as described.

The subject of test [3] is Akt. In words: In vitro kinase reaction with Akt immunoprecipitated from COS cells. In kind it is biochemical. The settings on record: immunoprecipitated kinase.
The test system of test [4] is eNOS. In words: NOS activity (3H-L-arginine to 3H-L-citrulline) in COS cell lysates. The format is biochemical, bovine. Particulars: COS cells transfected with eNOS only, n=3. From the text: NOS activity assays: The conversion of ^3H-L-arginine to ^3H-L-citrulline was used to determine NOS activity in COS cell or endothelial cell lysates as previously described by Garcia-Cardena et al. (1998).

Test [5] relates to Akt. In words: 32P phosphorylation of eNOS in intact transfected COS cells. Particulars: eNOS/Akt transfected COS cells; wortmannin 500 nM. In kind it is cell-based. The method, then:
Phosphorylation studies in vivo and in vitro: For in vivo phosphorylation studies, COS cells were transfected with the cDNAs for wild-type or S635, 1179A eNOS and HA-Akt overnight. 36 hrs after transfection, cells were placed into dialyzed serum replete, phosphate-free Dulbecco's minimum essential medium supplemented with 80 μCi/ml of ^32P orthophosphoric acid for 3 hr. Some cells were pretreated with wortmannin (500 nM) in the phosphate-free media for 1 hr and during the labeling.

The target of test [6] is T1, Akt. In words: In vitro phosphorylation of purified eNOS by recombinant Akt. The format is biochemical. Particulars: FIG. 2D. The method, then:
In experiments examining the in vitro phosphorylation of wild-type and mutant eNOS, recombinant Akt (1 mg) purified from baculovirus infected SF9 cells, was incubated with wild-type or S1179A eNOS (2.4 mg, purified from E. coli) using essentially the same conditions as above. Proteins were resolved by SDS-PAGE and ^32P incorporation and the amount of protein determined by Coomassie staining as above.

Positions count from the first letter of the chain named. In names and notes the source's numbering stands.

T1 sequence (P31749 whole entry): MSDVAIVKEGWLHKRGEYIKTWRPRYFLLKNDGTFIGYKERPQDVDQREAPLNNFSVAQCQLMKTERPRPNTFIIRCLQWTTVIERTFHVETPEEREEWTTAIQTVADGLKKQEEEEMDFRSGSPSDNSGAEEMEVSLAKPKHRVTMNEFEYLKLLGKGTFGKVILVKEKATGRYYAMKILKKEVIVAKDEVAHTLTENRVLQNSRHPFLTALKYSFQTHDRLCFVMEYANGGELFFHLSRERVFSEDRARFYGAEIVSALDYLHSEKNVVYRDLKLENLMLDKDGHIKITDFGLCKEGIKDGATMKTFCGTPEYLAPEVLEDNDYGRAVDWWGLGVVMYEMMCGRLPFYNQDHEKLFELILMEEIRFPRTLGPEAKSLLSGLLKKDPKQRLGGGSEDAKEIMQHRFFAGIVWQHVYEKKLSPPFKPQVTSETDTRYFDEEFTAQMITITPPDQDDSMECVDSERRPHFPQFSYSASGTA

On to “1174RIRTQSFSLQERHLRGAVPWA1194 (listed as Bos sp.) [wild-type peptide]”, for which the “phosphate incorporated into peptide” value in test [1] came to 24.6±3.7 nmol phosphate/mg.

As for “iNOS: human inducible NOS [reference compound]”, in test [2], the “Akt dependent NO release / activation of NOS construct” value (shortened to “Akt dependent NO release / activation”) is on record as “did not result in a further increase in NO release”.

Turning to “kinase inactive Akt: kinase inactive Akt (K179M) [reference compound]”, in test [2], the “NO2− accumulation on co-transfection with eNOS” value is listed as “not”. The “histone or eNOS phosphorylation by Akt variant” value in test [3] is “did not significantly increase histone or eNOS phosphorylation”.

With “myr-nNOS: nNOS with new amino terminus containing the eNOS N-myristoylation consensus site (MGNLKSVG)”, the “Akt dependent NO release / activation” value in test [2] is “results in Akt stimulation of nNOS”.

Consider “nNOS: rat neuronal NOS [reference compound]”, for which, in test [2], the “Akt dependent NO release / activation” value is reported as “did not result in a further increase in NO release”.

On to “wild-type Akt: HA-tagged wild-type Akt (protein kinase B) [reference compound]”, for which the “NO2− accumulation on co-transfection with eNOS” value in test [2] is listed as “markedly enhanced”.

B1: G2A eNOS: myristoylation, palmitoylation defective mutant of eNOS (protein)
chain: ANLKSVGQEPGPPCGLGLGLGLGLCGKQGPASPAPEPSRAPAPATPHAPDHSPAPNSPTLTRPPEGPKFPRVKNWELGSITYDTLCAQSQQDGPCTPRCCLGSLVLPRKLQTRPSPGPPPAEQLLSQARDFINQYYSSIKRSGSQAHEERLQEVEAEVASTGTYHLRESELVFGAKQAWRNAPRCVGRIQWGKLQVFDARDCSSAQEMFTYICNHIKYATNRGNLRSAITVFPQRAPGRGDFRIWNSQLVRYAGYRQQDGSVRGDPANVEITELCIQHGWTPGNGRFDVLPLLLQAPDEAPELFVLPPELVLEVPLEHPTLEWFAALGLRWYALPAVSNMLLEIGGLEFSAAPFSGWYMSTEIGTRNLCDPHRYNILEDVAVCMDLDTRTTSSLWKDKAAVEINLAVLHSFQLAKVTIVDHHAATVSFMKHLDNEQKARGGCPADWAWIVPPISGSLTPVFHQEMVNYILSPAFRYQPDPWKGSATKGAGITRKKTFKEVANAVKISASLMGTLMAKRVKATILYASETGRAQSYAQQLGRLFRKAFDPRVLCMDEYDVVSLEHEALVLVVTSTFGNGDPPENGESFAAALMEMSGPYNSSPRPEQHKSYKIRFNSVSCSDPLVSSWRRKRKESSNTDSAGALGTLRFCVFGLGSRAYPHFCAFARAVDTRLEELGGERLLQLGQGDELCGQEEAFRGWAKAAFQASCETFCVGEEAKAAAQDIFSPKRSWKRQRYRLSTQAEGLQLLPGLIHVHRRKMFQATVLSVENLQSSKSTRATILVRLDTAGQEGLQYQPGDHIGICPPNRPGLVEALLSRVEDPPPPTESVAVEQLEKGSPGGPPPSWVRDPRLPPCTLRQALTFFLDITSPPSPRLLRLLSTLAEEPSEQQELETLSQDPRRYEEWKWFRCPTLLEVLEQFPSVALPAPLLLTQLPLLQPRYYSVSSAPNAHPGEVHLTVAVLAYRTQDGLGPLHYGVCSTWLSQLKTGDPVPCFIRGAPSFRLPPDPYVPCILVGPGTGIAPFRGFWQERLHDIESKGLQPAPMTLVFGCRCSQLDHLYRDEVQDAQERGVFGRVLTAFSREPDSPKTYVQDILRTELAAEVHRVLCLERGHMFVCGDVTMATSVLQTVQRILATEGDMELDEAGDVIGVLRDQQRYHEDIFGLTLRTQEVTSRIRTQSFSLQERHLRGAVPWAFDPPGPDTPGP
Regarding B1, the “Akt dependent NO release / activation” value in test [2] is “did not activate”.

B2: S635, 1179A: double serine mutant of eNOS, serines 635 and 1179 mutated to alanine (protein)
chain: B1 chain with A1G, S634A, S1178A
Take B2: in test [2], the “Akt dependent NO release / activation” value is on record as “abolishes Akt dependent NO release”. The “NOS activity in lysates” value in test [4] is 80.8±23.2 pmol L-citrulline generated/mg protein. Further, the “Akt dependent phosphorylation of eNOS in intact cells” value in test [5] is “abolished Akt dependent phosphorylation of eNOS”.

B3: S1179A: bovine eNOS with serine 1179 mutated to alanine (protein)
chain: B1 chain with A1G, S1178A
Regarding B3, the “Akt dependent NO release / activation” value in test [2] was “abolishes Akt dependent activation of eNOS”. Further, the “NOS activity in lysates” value in test [4] was 71.9±2.9 pmol L-citrulline generated/mg protein. Moreover, the “Akt-dependent phosphorylation compared to the wild-type protein” value in test [6] was “markedly reduces”.

Source of the values: US7888089B2, “eNOS mutations useful for gene therapy and therapeutic screening” (Yale University, priority 1999, dated 2011).
